Numbering of substitutions follows the chain as printed.
How the values were obtained:
[1] = target: T1, refolded rhAPOA4-His monomer (human, UniProt P06727 21-396); assay: ELISA, antigen captured by anti-6xHis antibody, hybridoma supernatant
T1 construct: not shown: C-terminal histidine tag
T1 sequence: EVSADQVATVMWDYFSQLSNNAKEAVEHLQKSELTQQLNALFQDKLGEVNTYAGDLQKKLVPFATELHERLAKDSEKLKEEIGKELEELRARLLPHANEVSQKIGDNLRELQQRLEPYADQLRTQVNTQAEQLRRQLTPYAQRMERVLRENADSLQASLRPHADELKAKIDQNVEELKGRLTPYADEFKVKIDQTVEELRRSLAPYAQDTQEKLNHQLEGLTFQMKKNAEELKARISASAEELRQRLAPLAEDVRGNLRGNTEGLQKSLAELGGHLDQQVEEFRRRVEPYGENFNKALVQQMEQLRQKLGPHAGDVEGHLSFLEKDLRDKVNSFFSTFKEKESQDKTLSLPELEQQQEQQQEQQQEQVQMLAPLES
Experimental: Using the culture supernatant of the hybridoma obtained in (1), the reactivity to rhAPOA4-His was evaluated by ELISA as follows.
50 μL/well of a 50 mM Tris buffer (pH 7.5) containing 2 μg/mL of an anti-6×His rabbit polyclonal antibody (anti-6×His antibody, manufactured by Bethyl Laboratories) was added to a 96-well plate (manufactured by Nunc), and incubation was performed at 4° C. overnight. After removing the anti-6×His antibody solution, blocking was performed by adding 100 μL/well of 50 mM Tris-buffered saline solution (pH 7.5) containing 0.01% Tween 20 and 5% skim milk, and the plate was left at room temperature for 1 hour. After washing the well three times with Tris-buffered saline solution (pH 7.5) (washing solution) containing 0.01% Tween 20, rhAPOA4-His prepared in Example 1 or refolded rhAPOA4-His monomer prepared by the method described below was added at a concentration of 450 ng/mL (10 nM) by 50 μL/well, and incubation was performed at room temperature for 1 hour. The refolded rhAPOA4-His monomer was prepared by diluting rhAPOA4-His prepared in Example 1 two-fold with a 50 mM Tris-buffered saline solution (pH 7.5) containing 8 M urea (manufactured by Wako Pure Chemical Industries, Ltd.), leaving at room temperature for 30 minutes, and diluting 50-fold with a 50 mM Tris-buffered saline solution (pH 7.5) (reaction solution) containing 4% Block Ace (manufactured by DS Pharma Biomedical Corporation) and 0.01% Tween 20. After washing the well three times with the washing solution, the culture supernatant of the hybridoma was added to the well and incubation was performed at room temperature for 1 hour. After removing the added culture supernatant, the well was washed three times with the washing solution. A horseradish peroxidase-labeled anti-mouse IgG antibody (manufactured by Jackson ImmunoResearch Laboratories) appropriately diluted with the reaction solution was added at 50 μL/well, incubation was performed at room temperature for 1 hour, and then the well was washed 5 times with the washing solution. […]

rhAPOA4-His dimer = target: T2, rhAPOA4-His dimer (human, UniProt P06727 21-396); assay: statement of the description; experiment is the ELISA of Example 4 (FIG. 1)
T2 construct: also called APOA4 dimer; dimer of rhAPOA4-His; not shown: C-terminal histidine tag
T2 sequence: T1 sequence
Experimental: (§1) 50 μL/well of a 50 mM Tris buffer (pH 7.5) containing 2 μg/mL of an anti-6×His rabbit polyclonal antibody (anti-6×His antibody, manufactured by Bethyl Laboratories) was added to a 96-well plate (manufactured by Nunc), and incubation was performed at 4° C. overnight. After removing the anti-6×His antibody solution, blocking was performed by adding 100 μL/well of 50 mM Tris-buffered saline solution (pH 7.5) containing 0.01% Tween 20 and 5% skim milk, and the plate was left at room temperature for 1 hour. After washing the well three times with a Tris-buffered saline solution (pH 7.5) (washing solution) containing 0.01% Tween 20, the rhAPOA4-His monomer or dimer prepared in Example 2 was diluted so as to be 450 ng/mL with a 50 mM Tris-buffered saline solution (pH 7.5) (reaction solution) containing 1% Block Ace (manufactured by DS Pharma Biomedical) and 0.01% Tween 20, and added thereto at 50 μL/well. After incubating at room temperature for 1 hour, the well was washed three times with the washing solution, and then the anti-human APOA4 monoclonal antibody obtained in Example 3 was diluted with the reaction solution so as to be 1 μg/mL and added thereto at 50 μL/well. After the incubation at room temperature for 1 hour, the well was washed three times with the washing solution. Subsequently, 50 μL/well of a horseradish peroxidase-labeled anti-mouse IgG antibody (manufactured by Jackson ImmunoResearch Laboratories) appropriately diluted with the reaction solution was added, incubation was performed at room temperature for 1 hour, and the well was washed 5 times with the washing solution. 50 μL/well of a TMB (3,3′,5,5′-tetramethylbenzidine) solution was added and incubation was performed at room temperature for 15 minutes. The reaction was stopped by adding 50 μL/well of 1N H₂SO₄ in the equivalent volume to that of the TMB solution, and the absorbance of 450 nm was measured using a microplate reader (manufactured by ThermoFisher Scientific).

rhAPOA4-His monomer = target: T3, rhAPOA4-His monomer (human, UniProt P06727 21-396); assay: as above
T3 construct: also called APOA4 monomer; monomer of rhAPOA4-His; not shown: C-terminal histidine tag
T3 sequence: T1 sequence
Experimental: as §1

APOA4 in human serum [2] = target: T4, APOA4 in human serum (human, UniProt P06727 21-396); assay: sandwich ELISA on diluted human serum, labeled detection antibody with No. 30 as capture
T4 construct: Native protein in serum of healthy humans (monomer and dimer); also called human serum APOA4; APOA4 in the specimen
T4 sequence: T1 sequence

APOA4 in human serum [3] = target: T4, APOA4 in human serum; assay: sandwich ELISA, labeled detection antibody
Experimental: (§2) Anti-human APOA monoclonal antibody No. 30 was adjusted to a concentration of 2 μg/mL with a 50 mM Tris buffer solution (pH 7.5). Antibody No. 30 solution was added to a Maxisorp cup (NUNC, manufactured by C8 Maxisorp) at 100 μL/well, the Maxisorp cup was put in a wet box and allowed to stand at 4° C. overnight, and antibody No. 30 was coated on the well. After removing antibody No. 30 solution by suction, a 50 mM Tris-buffered saline solution (pH 7.5) (blocking solution) containing 5% skim milk, 0.1% sodium azide, and 0.01% Tween 20 was added at 200 μL/well, and then the cup was left at room temperature for 2 hours or at 4° C. for 1 day or more (hereinafter, the prepared Maxisorp cup is referred to as “antibody No. 30 cup”). […] After stopping the reaction by injecting 100 μL/well of 0.5 M H₂SO₄, the absorbance was measured at a wavelength of 450 nm, and an APOA concentration was calculated using the rhAPOA4-His of a known concentration as a standard substance.

[4] = target: T5, recombinant human APOA4 in which a histidine tag is bound to the C-terminal of human APOA4 (human, UniProt P06727 21-396); assay: HDX-MS of rhAPOA4-His with and without antibody
T5 construct: Secreted from Expi293F cells and purified from the supernatant; Unfractionated mix of monomer and dimer; also called rhAPOA4-His; rhAPOA-His; not shown: C-terminal histidine tag
T5 sequence: T1 sequence
Experimental: A solution in which about 10 μM of antibody No. 30 or antibody No. 33 were added to 10 μM of rhAPOA4-His and rhAPOA4-His and mixed therewith was diluted 20-fold with a PBS deuterium solution to start a deuteration reaction. As a control, a PBS solution was used.
After 1 minute, 10 minutes, 60 minutes, and 240 minutes at 23° C., an equivalent amount of 500 mM TCEP solution (pH 3 or less) containing cooled 2M guanidine hydrochloride was added to stop the reaction. After digesting the reaction solution with a pepsin column, peptide was separated and eluted by reversed-phase liquid chromatography using a C18 column, and LC-MS/MS measurement was performed with a mass spectrometer.
Each peptide derived from rhAPOA4-His was identified from the mass data, and the amount of deuterium exchange at each reaction time was calculated from the mass value. The peptide in which the amount of deuterium exchange was changed depending on the presence or absence of the antibody was extracted as an estimated epitope region.

APOA4 in human serum [5] = target: T4, APOA4 in human serum; assay: sandwich ELISA, capture antibody
Experimental: as §2

Measured: binding result

B1: anti-APOA4 monoclonal antibody No. 37 (antibody, IgG1, V domains shown)
VH: QVQLQQSGAELVKPGASVKISCKASGYTFSNYWLNWVKLRPGKGLEWIGQIYPGDGDTNYNGKFKGKATLTADKSSSRAYMQLSSLTSEDSAVYFCARRNNYVMDYWGQGTSVTVSS
VL: DIVMTQSHKFMSTSVGDRVSITCKASQDVGTSVAWYQQKLGQSPKLLINWASIRHTGVPDRFTGSGSGTDFSLTISNVQSEDLADHFCQQYSSYPFTFGSGTKLEIK
notes: Mouse hybridoma antibody; also called anti-human APOA4 monoclonal antibody No. 37; HRP-labeled antibody No. 37
binds: [1] | rhAPOA4-His dimer | rhAPOA4-His monomer | APOA4 in human serum [2]

B2: anti-APOA4 monoclonal antibody No. 33 (antibody, IgG1, V domains shown)
VH: QVHLQQSGAELVRPGSSVKISCKASGYAFSIYWMNWVRQRPGQGLEWIGQIYPGDGDTTYNGKFKGKATLTADKSSNTAYMHLSSLTSEDSAVFFCARRGDYVYDYWGQGTTLTVSS
VL: B1 VL with F10L, S32A, L40P, N49Y, I53T, S72T, S76Y, H86Y, S93T
notes: Mouse hybridoma antibody; unlabelled in HDX-MS; also called anti-human APOA4 monoclonal antibody No. 33; HRP-labeled antibody No. 33
not listed: APOA4 in human serum [2] | APOA4 in human serum [5]
binds: all other assays above

B3: anti-APOA4 monoclonal antibody No. 30 (antibody, IgG2b, V domains shown)
VH: EVQLQQSGPELVKPGASVKISCKASGYSFIGYFMSWVKQSHGKSLEWIGRINPYNGDTFYNQKFKGKATLTVDKSSSTAHMELLSLTSEDSAVYYCGRGIIGFDYWGQGTTLTVSS
VL: DIQMTQSPASLSASVGETVTITCRPSENIHSYLAWYHQKQGKSPQLLVYDATTLAEGVPSRFSGSGSGTQFFLKINSLQPEDFGSYYCQHHYVSPWTFGGGTKLEIK
notes: Mouse hybridoma antibody purified with Protein A; Used as capture antibody coated on the well in the sandwich ELISAs; also called anti-human APOA4 monoclonal antibody No. 30; Anti-human APOA monoclonal antibody No. 30
not listed: APOA4 in human serum [2] | APOA4 in human serum [3]
binds: all other assays above

From patent US20210055300A1 (EISAI R AND D MANAGEMENT, published 2021)
